Earlier results in US5780279A, “Method of selection of proteolytic cleavage sites by directed evolution and phagemid display” (Genentech, Inc., priority 1995, dated 1998).
Where no end group is shown, it is not given here.

Target: A64SAL subtilisin (Bacillus amyloliquefaciens, UniProt P00782, E263S/G276A/H171A/S131C/Y324L)
Details: Carter et al (1989)

A64SAL subtilisin, sequence (P00782 108-382 S131C/H171A/E263S/G276A/Y324L): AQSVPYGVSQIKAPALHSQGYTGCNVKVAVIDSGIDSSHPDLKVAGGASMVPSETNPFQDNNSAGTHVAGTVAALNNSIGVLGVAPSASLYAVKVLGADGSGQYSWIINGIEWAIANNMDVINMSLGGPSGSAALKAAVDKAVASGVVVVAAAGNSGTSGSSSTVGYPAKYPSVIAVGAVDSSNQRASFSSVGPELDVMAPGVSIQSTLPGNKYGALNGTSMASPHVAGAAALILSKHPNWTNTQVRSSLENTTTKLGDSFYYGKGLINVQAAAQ

## AAHYTRQ
  substrate quality for A64SAL subtilisin: good substrate
